Assay results taken from patent US20070293656A1, “COLLAGEN BINDING PEPTIDES” (Epix Pharmaceuticals, Inc., priority 2005, published 2007).
Read-outs that look alike come from different tables or passages of the source. Bridge positions count the residues as written; N and C are the ends. Square brackets hold non-standard residues; d marks the D form. Primed or numbered codes have the meaning given here. Side chains are listed from the residue outwards. Ends that are not written are not given here. * marks the point of attachment. GdT″ = Gd-DTPA chelate conjugated through a thiourea; Dip = N[C@H](C(=O)O)C(c1ccccc1)c1ccccc1; Orn = NCCC[C@H](N)C(=O)O; Gd^T″ = GdDTPA-thiourea; Cbz = O=C(OCc1ccccc1)*

Assays:
human collagen type I = target: T1, human collagen type I (Homo sapiens, UniProt P02452+P08123); assay: Dried collagen assay (DCA): percent binding to dried human collagen; details: 5 μM peptide in PBS, pH 7.4, 2 hours at room temperature
T1 construct: Acid soluble human collagen extracted from placenta; purchased Sigma C7774 (lot #083K375); host or cells: human placenta
T1 sequence (P02452 162-1218 limits assumed): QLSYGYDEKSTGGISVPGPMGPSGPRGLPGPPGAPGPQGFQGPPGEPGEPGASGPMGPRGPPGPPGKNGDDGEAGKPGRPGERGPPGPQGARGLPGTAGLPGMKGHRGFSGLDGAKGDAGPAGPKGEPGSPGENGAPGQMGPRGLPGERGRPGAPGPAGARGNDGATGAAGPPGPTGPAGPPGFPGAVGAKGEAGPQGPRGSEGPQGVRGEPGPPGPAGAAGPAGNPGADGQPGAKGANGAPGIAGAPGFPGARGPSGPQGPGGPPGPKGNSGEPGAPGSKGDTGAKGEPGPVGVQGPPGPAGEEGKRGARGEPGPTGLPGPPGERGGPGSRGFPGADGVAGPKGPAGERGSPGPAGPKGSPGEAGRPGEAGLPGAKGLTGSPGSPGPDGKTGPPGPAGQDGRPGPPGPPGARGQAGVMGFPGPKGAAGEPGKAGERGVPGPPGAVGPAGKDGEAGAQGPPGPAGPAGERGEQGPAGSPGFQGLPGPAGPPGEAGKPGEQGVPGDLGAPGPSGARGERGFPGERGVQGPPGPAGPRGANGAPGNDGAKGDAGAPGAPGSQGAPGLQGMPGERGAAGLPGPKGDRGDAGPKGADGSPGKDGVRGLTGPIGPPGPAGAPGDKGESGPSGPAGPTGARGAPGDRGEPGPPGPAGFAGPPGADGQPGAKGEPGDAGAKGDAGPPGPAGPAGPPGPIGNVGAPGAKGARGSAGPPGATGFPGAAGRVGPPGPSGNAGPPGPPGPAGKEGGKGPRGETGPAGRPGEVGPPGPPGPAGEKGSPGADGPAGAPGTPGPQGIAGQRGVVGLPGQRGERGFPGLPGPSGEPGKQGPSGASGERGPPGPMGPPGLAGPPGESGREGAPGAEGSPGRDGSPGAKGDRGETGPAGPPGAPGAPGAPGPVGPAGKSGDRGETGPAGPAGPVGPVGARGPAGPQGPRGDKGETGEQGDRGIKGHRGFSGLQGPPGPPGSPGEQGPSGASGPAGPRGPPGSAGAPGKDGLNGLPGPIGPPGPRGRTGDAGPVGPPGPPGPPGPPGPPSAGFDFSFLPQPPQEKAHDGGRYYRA
T1 sequence (P08123 80-1119 limits assumed): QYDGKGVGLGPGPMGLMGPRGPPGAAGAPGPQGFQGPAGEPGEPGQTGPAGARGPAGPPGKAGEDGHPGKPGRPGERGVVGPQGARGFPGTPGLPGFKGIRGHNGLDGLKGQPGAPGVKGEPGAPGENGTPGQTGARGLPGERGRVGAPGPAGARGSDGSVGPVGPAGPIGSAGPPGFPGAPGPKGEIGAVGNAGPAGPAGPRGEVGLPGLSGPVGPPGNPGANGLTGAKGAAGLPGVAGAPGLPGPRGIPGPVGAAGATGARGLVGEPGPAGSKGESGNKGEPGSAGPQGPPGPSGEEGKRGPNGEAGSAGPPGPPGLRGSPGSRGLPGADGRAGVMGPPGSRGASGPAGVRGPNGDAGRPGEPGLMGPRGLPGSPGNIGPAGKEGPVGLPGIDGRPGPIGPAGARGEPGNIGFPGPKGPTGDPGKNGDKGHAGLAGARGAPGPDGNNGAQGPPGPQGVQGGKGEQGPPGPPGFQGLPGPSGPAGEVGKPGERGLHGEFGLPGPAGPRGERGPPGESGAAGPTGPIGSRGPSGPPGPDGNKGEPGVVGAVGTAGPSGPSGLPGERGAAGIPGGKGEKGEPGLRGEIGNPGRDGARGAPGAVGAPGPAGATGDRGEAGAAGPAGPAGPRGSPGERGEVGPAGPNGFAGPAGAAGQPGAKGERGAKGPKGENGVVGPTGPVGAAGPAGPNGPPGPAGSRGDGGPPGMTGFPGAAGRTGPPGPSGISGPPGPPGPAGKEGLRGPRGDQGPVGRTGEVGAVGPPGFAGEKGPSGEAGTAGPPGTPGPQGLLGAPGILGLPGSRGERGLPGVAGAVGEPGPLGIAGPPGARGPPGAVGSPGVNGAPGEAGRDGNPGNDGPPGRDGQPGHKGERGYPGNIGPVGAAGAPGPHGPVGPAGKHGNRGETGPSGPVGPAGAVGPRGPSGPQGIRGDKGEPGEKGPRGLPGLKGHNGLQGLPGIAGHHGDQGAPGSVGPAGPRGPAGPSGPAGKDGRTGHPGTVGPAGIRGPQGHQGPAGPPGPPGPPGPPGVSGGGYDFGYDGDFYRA
Description: Acid soluble human collagen extracted from placenta (Sigma, cat #C7774, lot #083K375) is dissolved in 15 mM HCl (3.5 mg/ml) by vortexing and gently shaking for 3-4 hours at 4° C. The acid soluble collagen is […] against PBS, pH 7.4 (three buffer exchanges are used). The […] protein concentration is determined by the BCA method (Pierce, Cat #23225) using bovine collagen (Vitrogen, cat #FXP-019) as a reference standard. Percent gelation (fibril formation) of the collagen is determined by incubating 10 μM collagen (3.3 mg/ml) at 37° C. for 6 hours. A typical percent gelation is 60%.
(§1) An additional 90 μL is reserved in a HPLC glass vial as a measure of the total concentration.

rat collagen type I = target: T2, rat collagen type I (Rattus norvegicus, UniProt P02454+P02466); assay: Dried collagen assay (DCA): percent binding to dried rat collagen; details: 5 μM peptide in PBS, pH 7.4, 2 hours at room temperature
T2 construct: Rat collagen (acid soluble, type I, rat tail); purchased Upstate USA, Inc 08-115; host or cells: rat tail
T2 sequence (P02454 152-1207 limits assumed): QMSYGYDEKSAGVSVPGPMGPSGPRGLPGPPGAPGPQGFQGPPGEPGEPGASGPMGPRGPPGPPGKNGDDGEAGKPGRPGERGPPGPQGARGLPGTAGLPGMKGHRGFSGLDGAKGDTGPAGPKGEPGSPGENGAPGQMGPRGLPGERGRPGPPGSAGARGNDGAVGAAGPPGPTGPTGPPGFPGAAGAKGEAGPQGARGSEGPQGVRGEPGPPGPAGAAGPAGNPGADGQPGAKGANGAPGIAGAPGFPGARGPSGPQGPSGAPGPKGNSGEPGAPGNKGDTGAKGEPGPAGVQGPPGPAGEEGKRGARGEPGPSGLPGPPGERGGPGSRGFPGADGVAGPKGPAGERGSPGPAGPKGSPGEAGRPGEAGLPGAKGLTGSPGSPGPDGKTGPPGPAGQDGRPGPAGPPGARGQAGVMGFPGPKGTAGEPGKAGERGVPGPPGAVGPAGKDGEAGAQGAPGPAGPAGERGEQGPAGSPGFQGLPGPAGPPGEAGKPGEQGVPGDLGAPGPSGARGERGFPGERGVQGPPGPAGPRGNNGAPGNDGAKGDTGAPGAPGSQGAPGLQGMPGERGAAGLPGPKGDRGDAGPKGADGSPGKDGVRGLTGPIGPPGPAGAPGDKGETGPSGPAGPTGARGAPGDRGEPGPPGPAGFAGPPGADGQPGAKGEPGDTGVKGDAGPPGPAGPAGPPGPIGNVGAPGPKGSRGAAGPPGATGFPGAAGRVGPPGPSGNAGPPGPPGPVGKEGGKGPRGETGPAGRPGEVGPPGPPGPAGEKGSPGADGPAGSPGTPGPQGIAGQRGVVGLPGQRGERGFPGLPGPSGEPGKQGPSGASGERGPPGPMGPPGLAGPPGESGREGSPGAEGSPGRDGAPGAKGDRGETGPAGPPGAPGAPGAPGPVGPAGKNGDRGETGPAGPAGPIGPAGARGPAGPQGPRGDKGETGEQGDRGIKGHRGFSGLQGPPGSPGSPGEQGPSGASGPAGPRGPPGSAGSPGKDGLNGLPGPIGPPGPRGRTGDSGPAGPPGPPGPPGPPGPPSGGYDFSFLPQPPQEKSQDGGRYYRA
T2 sequence (P02466 86-1125 limits assumed): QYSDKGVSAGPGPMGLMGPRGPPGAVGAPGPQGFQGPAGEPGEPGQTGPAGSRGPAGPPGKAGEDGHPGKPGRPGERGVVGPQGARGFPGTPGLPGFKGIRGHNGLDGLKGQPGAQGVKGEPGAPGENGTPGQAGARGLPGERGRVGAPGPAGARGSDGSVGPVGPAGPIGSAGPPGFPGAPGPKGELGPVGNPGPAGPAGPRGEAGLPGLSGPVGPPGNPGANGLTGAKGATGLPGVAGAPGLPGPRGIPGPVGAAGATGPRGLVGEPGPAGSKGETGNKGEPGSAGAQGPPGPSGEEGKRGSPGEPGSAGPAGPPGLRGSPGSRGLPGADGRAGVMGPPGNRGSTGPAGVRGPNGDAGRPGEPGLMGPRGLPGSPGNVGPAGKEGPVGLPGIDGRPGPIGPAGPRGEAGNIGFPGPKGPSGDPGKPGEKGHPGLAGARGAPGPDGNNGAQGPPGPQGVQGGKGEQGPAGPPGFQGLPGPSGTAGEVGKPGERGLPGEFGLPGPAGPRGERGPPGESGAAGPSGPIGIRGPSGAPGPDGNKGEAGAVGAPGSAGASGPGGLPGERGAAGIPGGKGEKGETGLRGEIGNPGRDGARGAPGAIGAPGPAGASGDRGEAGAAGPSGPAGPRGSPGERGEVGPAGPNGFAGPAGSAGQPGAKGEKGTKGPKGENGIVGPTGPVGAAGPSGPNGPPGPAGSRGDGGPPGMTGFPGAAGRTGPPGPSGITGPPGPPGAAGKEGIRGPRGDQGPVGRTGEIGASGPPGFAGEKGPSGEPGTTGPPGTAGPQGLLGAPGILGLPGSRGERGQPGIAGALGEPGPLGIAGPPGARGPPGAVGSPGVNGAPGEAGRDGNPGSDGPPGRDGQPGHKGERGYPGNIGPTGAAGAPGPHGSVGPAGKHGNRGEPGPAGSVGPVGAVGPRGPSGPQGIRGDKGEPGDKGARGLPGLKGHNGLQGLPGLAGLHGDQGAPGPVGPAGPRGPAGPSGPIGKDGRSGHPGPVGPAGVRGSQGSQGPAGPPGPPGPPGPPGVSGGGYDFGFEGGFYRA
Description: Rat collagen (acid soluble, type I, rat tail, Upstate USA, Inc, cat #08-115) is dialyzed against 10 mM Phosphate (NaH2PO4), pH 4.2 with three changes of the dialysis buffer. For the final assay, a 1:10 volume of 10×PBS (100 mM NaH2PO4, 1.5 M NaCl pH 7.4) is added to the collagen solution (final 1×PBS) and incubated at 37° C. for 2 hours. The gelation is typically 90%.
as §1

[1] = target: T3, human collagen type I (acid soluble, extracted from placenta, Sigma C7774) (human, UniProt P02452 162-1218; P08123 80-1119); assay: dried collagen assay
T3 construct: gelled and dried as a fibril film in the assay; also called dried human collagen; h-Collagen
T3 sequence (P02452 162-1218 limits assumed, chain 1 of 2): as the sequence (P02452 162-1218 limits assumed) above
T3 sequence (P08123 80-1119 limits assumed, chain 2 of 2): as the sequence (P08123 80-1119 limits assumed) above

[2] = target: T4, rat collagen (acid soluble, type I, rat tail, Upstate 08-115) (rat, UniProt P02454 152-1207; P02466 86-1125); assay: dried collagen assay
T4 construct: also called dried rat collagen; insoluble rat collagen
T4 sequence (P02454 152-1207 limits assumed, chain 1 of 2): as the sequence (P02454 152-1207 limits assumed) above
T4 sequence (P02466 86-1125 limits assumed, chain 2 of 2): as the sequence (P02466 86-1125 limits assumed) above

[3] = target: rat collagen (acid soluble, type I, rat tail, Upstate 08-115) (rat) (UniProt P02454); assay: dried collagen assay
Sequence of rat collagen (acid soluble, type I, rat tail, Upstate 08-115) (rat) (P02454 152-1207 limits assumed, chain 1 of 2): as the sequence (P02454 152-1207 limits assumed) above
Sequence of rat collagen (acid soluble, type I, rat tail, Upstate 08-115) (rat) (P02466 86-1125 limits assumed, chain 2 of 2, further chain): as the sequence (P02466 86-1125 limits assumed) above

[4] = target: human collagen type I (acid soluble, extracted from placenta, Sigma C7774) (human) (UniProt P02452); assay: dried collagen assay
Sequence of human collagen type I (acid soluble, extracted from placenta, Sigma C7774) (human) (P02452 162-1218 limits assumed, chain 1 of 2): as the sequence (P02452 162-1218 limits assumed) above
Sequence of human collagen type I (acid soluble, extracted from placenta, Sigma C7774) (human) (P08123 80-1119 limits assumed, chain 2 of 2, further chain): as the sequence (P08123 80-1119 limits assumed) above

[5] = target: T4, rat collagen (acid soluble, type I, rat …); assay: dried collagen assay; remark: listed apart in the source
[6] = target: T3, human collagen type I (acid soluble, …); assay: dried collagen assay; remark: listed apart in the source
[7] = target: T4, rat collagen (acid soluble, type I, rat …); assay: dried collagen assay; remark: listed apart in the source

167 (QWT[dC]SGDEYTWHCNYE; disulfide 4-13 (inferred)) [compound 167]
% Collagen Binding Dried Human (human collagen type I): 4%

113 (FSECVWVNAYQCEYF; disulfide 4-12 (inferred)) [compound 113]
Dried Human Collagen Binding (human collagen type I): 3%

2 (WGWCEWAQNNCWNY) [compound 2]
Dried Human Collagen Binding (human collagen type I): 14%

169 (QWTCSG[dD]EYTWHCNYE; disulfide 4-13 (inferred)) [compound 169]
% Collagen Binding Dried Rat (rat collagen type I): 4%

37 (LWNCHGTDANWKCVLN) [compound 37]
Dried Human Collagen Binding (human collagen type I): 7%

39 (GWQCSGDASVWNCDWI) [compound 39]
Dried Human Collagen Binding (human collagen type I): 6%

65 (KWECVHTKGEWYCETK) [compound 65]
Dried Human Collagen Binding (human collagen type I): 7%

130 (WWACQKGRHDWEKCRWL; disulfide 4-14 (inferred)) [compound 130]
Dried Human Collagen Binding (human collagen type I): 32%

168 (QWTC[dS]GDEYTWHCNYE; disulfide 4-13 (inferred)) [compound 168]
% Collagen Binding Dried Human (human collagen type I): 3% | % Collagen Binding Dried Rat (rat collagen type I): 2%

163 ([dY][dH][dA][dC][dY][dQ][dA]G[dC][dW][dI][dW]; disulfide 4-9 (inferred)) [compound 163]
% Collagen Binding Dried Rat (rat collagen type I): 53%

175 (QWTCSGDEYTWH[dC]NYE; disulfide 4-13 (inferred)) [compound 175]
% Collagen Binding Dried Human (human collagen type I): 2% | % Collagen Binding Dried Rat (rat collagen type I): 2%

173 (QWTCSGDEYT[dW]HCNYE; disulfide 4-13 (inferred)) [compound 173]
% Collagen Binding Dried Human (human collagen type I): 5% | % Collagen Binding Dried Rat (rat collagen type I): 4%

36 (SWSCGGDHNAWKCQYS) [compound 36]
Dried Human Collagen Binding (human collagen type I): 7%

38 (GWSCHGDAADWPCQWS) [compound 38]
Dried Human Collagen Binding (human collagen type I): 6%

166 (QW[dT]CSGDEYTWHCNYE; disulfide 4-13 (inferred)) [compound 166]
% Collagen Binding Dried Human (human collagen type I): 2% | % Collagen Binding Dried Rat (rat collagen type I): 3%

147 (QWTCSGDEYTAHCNYE; disulfide 4-13 (inferred)) [compound 147]
% Collagen Binding Dried Human (human collagen type I): 5%

142 (QWTCSADEYTWHCNYE; disulfide 4-13 (inferred)) [compound 142]
% Collagen Binding Dried Rat (rat collagen type I): 6%

3 (PWWCHEMPSMCFGF) [compound 3]
Dried Human Collagen Binding (human collagen type I): 2%

112 (AKACSVHDEFGCLIS; disulfide 4-12 (inferred)) [compound 112]
Dried Human Collagen Binding (human collagen type I): 9%

159 (YHACYQAG[dC]WIW; disulfide 4-9 (inferred)) [compound 159]
% Collagen Binding Dried Human (human collagen type I): 7%

174 (QWTCSGDEYTW[dH]CNYE; disulfide 4-13 (inferred)) [compound 174]
% Collagen Binding Dried Human (human collagen type I): 5%

165 (Q[dW]TCSGDEYTWHCNYE; disulfide 4-13 (inferred)) [compound 165]
% Collagen Binding Dried Human (human collagen type I): 2% | % Collagen Binding Dried Rat (rat collagen type I): 4%

137 (YHACYQAGCWAW; disulfide 4-9 (inferred)) [compound 137]
% Collagen Binding Dried Rat (rat collagen type I): 7%

176 (QWTCSGDEYTWHC[dN]YE; disulfide 4-13 (inferred)) [compound 176]
% Collagen Binding Dried Human (human collagen type I): 2% | % Collagen Binding Dried Rat (rat collagen type I): 2%

171 (QWTCSGDE[dY]TWHCNYE; disulfide 4-13 (inferred)) [compound 171]
% Collagen Binding Dried Rat (rat collagen type I): 6%

B1: SEQ ID NO: 131 (peptide)
peptide: AHACYQAGCWIW
modifications: disulfide 4-9 (inferred)
% bound [1]: 7% | % bound [2]: 12%

B2: SEQ ID NO: 133 (peptide)
peptide: YHACAQAGCWIW
modifications: disulfide 4-9 (inferred)
% bound [1]: 4% | % bound [2]: 5%

B3: SEQ ID NO: 134 (peptide)
peptide: YHACYAAGCWIW
modifications: disulfide 4-9 (inferred)
% bound [1]: 14% | % bound [2]: 1%

B4: SEQ ID NO: 135 (peptide)
peptide: YHACYQAACWIW
modifications: disulfide 4-9 (inferred)
% bound [1]: 72% | % bound [2]: 88%

B5: SEQ ID NO: 136 (peptide)
peptide: YHACYQAGCAIW
modifications: disulfide 4-9 (inferred)
% bound [1]: 2% | % bound [2]: 2%

B6: SEQ ID NO: 137 (peptide)
peptide: YHACYQAGCWAW
modifications: disulfide 4-9 (inferred)
% bound [3]: 7% | % bound [1]: 4%

B7: Comp ID 878 (peptide)
peptide: GQWHCTTRFPHAYCLYG
modifications: not fully specified; Gd^T-GQWHCTTRFPHAYCLYG
% bound [4]: 8% | % bound [5]: 9%

B8: Comp ID 885 (peptide)
peptide: GQWHCTTDFPHHYCLYG
modifications: not fully specified; Gd^T-GQWHCTTD-F(4-NH2)(Gd^T)-PHHYCLYG
% bound [5]: 9%

B9: Comp ID 936 (peptide)
peptide: GQWHCTDRFPHHYCLYG
modifications: not fully specified; Gd^T-GQWHCTDRFPHHYCLYG
% bound [5]: 5%

B10: Comp ID 941 (peptide)
peptide: Cbz-GQWHCT[Orn](Gd^T″)RFPHHYCLYG
modifications: disulfide 5-14; not fully specified (C-terminus); printed as cbz-GQWHCT-Orn(Gd^T)-RFPHHYCLYG
% bound [4]: 8% | % bound [5]: 5%

B11: SEQ ID NO: 132 (peptide)
peptide: YAACYQAGCWIW
modifications: disulfide 4-9 (inferred)
% bound [1]: 53% | % bound [2]: 37%

B12: SEQ ID NO: 138 (peptide)
peptide: YHACYQAGCWIA
modifications: disulfide 4-9 (inferred)
% bound [1]: 2% | % bound [2]: 1%

B13: SEQ ID NO: 153 (peptide)
peptide: Y[dH]ACYQAGCWIW
modifications: disulfide 4-9 (inferred)
% bound [6]: 0% | % bound [7]: 0%

B14: SEQ ID NO: 154 (peptide)
peptide: YH[dA]CYQAGCWIW
modifications: disulfide 4-9 (inferred)
% bound [6]: 24% | % bound [7]: 21%

B15: SEQ ID NO: 156 (peptide)
peptide: YHAC[dY]QAGCWIW
modifications: disulfide 4-9 (inferred)
% bound [6]: 38% | % bound [7]: 48%

B16: SEQ ID NO: 157 (peptide)
peptide: YHACY[dQ]AGCWIW
modifications: disulfide 4-9 (inferred)
% bound [6]: 37% | % bound [7]: 35%

B17: SEQ ID NO: 158 (peptide)
peptide: YHACYQ[dA]GCWIW
modifications: disulfide 4-9 (inferred)
% bound [6]: 56% | % bound [7]: 66%

B18: SEQ ID NO: 160 (peptide)
peptide: YHACYQAGC[dW]IW
modifications: disulfide 4-9 (inferred)
% bound [6]: 20% | % bound [7]: 12%

B19: SEQ ID NO: 161 (peptide)
peptide: YHACYQAGCW[dI]W
modifications: disulfide 4-9 (inferred)
% bound [6]: 8% | % bound [7]: 10%

B20: Comp ID 906 (peptide)
peptide: GQWHCTTRFPHHYXLYG
modifications: not fully specified; Gd^T-GQWHCTTRFPHHY-Pen-LYG
% bound [5]: 5%

B21: Comp ID 967 (peptide)
peptide: {Gd^T″}-GK([Gly-Gd^T″])WHCTTYFPHHYCL[Dip]G
modifications: disulfide 5-14 (inferred); not fully specified (C-terminus); printed as Gd^T-G-K(G.Gd^T)-WHCTTYFPHHYCL-Dip-G
% bound [5]: 4%

B22: Comp ID 968 (peptide)
peptide: {GdT″}-GK([Gly-GdT″])WHCTTYFPHH[Dip]CLYG
modifications: disulfide 5-14; not fully specified (C-terminus)
% bound [5]: 64%
